Experimental data from paper PMC7089075.

Experiments:
[1] = molecular target: N (two-hybrid positive control, pAS2 N and pGADT7 N); test: two-hybrid
[2] = molecular target: Salmo salar Mov10 (SsMov10) (Salmo salar); test: two-hybrid

Substance | liquid beta gal assay value [1] | fold β-galactosidase activity against the controls [2] [fold]
N (two-hybrid positive control, pAS2 N and pGADT7 N) (natural protein) | 1.28 | –
infectious salmon anaemia virus (ISAV) segment 8 open reading frame 2 protein (s8ORF2) (natural protein) | – | 5
